Residue numbers refer to the chain shown, from its start.
What was measured:
[1] = biological target: T1, Suv39h1 R24,K27A double mutant (FLAG-tagged) (human, UniProt O43463 1-412, R24A | K27A); test: pull-down
T1 sequence: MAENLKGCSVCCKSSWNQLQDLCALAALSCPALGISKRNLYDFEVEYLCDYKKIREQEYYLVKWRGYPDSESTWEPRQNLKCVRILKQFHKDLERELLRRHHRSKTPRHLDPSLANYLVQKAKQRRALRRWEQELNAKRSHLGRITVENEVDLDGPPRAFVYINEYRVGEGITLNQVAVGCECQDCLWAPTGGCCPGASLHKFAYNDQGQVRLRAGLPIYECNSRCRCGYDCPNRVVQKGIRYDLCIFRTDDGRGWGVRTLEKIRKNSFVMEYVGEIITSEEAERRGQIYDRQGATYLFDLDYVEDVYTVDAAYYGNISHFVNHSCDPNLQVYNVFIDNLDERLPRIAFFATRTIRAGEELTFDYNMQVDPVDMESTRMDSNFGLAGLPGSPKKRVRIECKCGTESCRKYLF

[2] = biological target: T2, Suv39h1, wild type (FLAG-tagged, recombinant human) (human, UniProt O43463 1-412); test: pull-down
T2 sequence: T1 sequence with A24R, A27K

binding result [1]: binds | binding result [2]: binds
B1: HP1β (human Cbx1), His6-tagged (natural protein)
chain: not shown
